According to US20150191730A1, “APTAMER-TARGETTED ANTIGEN DELIVERY” (ALBERT EINSTEIN COLLEGE OF MEDICINE OF YESHIVA UNIVERSITY, published 2015):

B1: min.2 (ssRNA)
RNA: GGGAGGUGUGUUAGCACACGAUUCAUAAUCAGCUACCCUCCC
modifications: 2'-F pyrimidines; 3' idT; 5' thiol C6

What was measured:
mouse DEC205 (mouse) = mouse DEC205 (mouse) (UniProt Q60767); experiment: cell-based or functional assay
[1] = molecular target: DEC205 (CD205, LY75), mouse, surface-expressed (Mus musculus, UniProt Q60767 Q60767:28-1723); experiment: flow; apparent; A20.Kb/mDEC205 cells; RPMI + 1 mg/mL ssDNA, 37 C, 15 min; one-site fit; conditions: tags: full-length, stably expressed on CHO (CHO/mDEC205) or A20.Kb/mDEC205 cells; label: Alexa Fluor 488 (5'); Mfold-predicted stem-loop with conserved UUCAUAA
Sequence of DEC205 (CD205, LY75), mouse, surface-expressed (Q60767 28-1723, one chain of several): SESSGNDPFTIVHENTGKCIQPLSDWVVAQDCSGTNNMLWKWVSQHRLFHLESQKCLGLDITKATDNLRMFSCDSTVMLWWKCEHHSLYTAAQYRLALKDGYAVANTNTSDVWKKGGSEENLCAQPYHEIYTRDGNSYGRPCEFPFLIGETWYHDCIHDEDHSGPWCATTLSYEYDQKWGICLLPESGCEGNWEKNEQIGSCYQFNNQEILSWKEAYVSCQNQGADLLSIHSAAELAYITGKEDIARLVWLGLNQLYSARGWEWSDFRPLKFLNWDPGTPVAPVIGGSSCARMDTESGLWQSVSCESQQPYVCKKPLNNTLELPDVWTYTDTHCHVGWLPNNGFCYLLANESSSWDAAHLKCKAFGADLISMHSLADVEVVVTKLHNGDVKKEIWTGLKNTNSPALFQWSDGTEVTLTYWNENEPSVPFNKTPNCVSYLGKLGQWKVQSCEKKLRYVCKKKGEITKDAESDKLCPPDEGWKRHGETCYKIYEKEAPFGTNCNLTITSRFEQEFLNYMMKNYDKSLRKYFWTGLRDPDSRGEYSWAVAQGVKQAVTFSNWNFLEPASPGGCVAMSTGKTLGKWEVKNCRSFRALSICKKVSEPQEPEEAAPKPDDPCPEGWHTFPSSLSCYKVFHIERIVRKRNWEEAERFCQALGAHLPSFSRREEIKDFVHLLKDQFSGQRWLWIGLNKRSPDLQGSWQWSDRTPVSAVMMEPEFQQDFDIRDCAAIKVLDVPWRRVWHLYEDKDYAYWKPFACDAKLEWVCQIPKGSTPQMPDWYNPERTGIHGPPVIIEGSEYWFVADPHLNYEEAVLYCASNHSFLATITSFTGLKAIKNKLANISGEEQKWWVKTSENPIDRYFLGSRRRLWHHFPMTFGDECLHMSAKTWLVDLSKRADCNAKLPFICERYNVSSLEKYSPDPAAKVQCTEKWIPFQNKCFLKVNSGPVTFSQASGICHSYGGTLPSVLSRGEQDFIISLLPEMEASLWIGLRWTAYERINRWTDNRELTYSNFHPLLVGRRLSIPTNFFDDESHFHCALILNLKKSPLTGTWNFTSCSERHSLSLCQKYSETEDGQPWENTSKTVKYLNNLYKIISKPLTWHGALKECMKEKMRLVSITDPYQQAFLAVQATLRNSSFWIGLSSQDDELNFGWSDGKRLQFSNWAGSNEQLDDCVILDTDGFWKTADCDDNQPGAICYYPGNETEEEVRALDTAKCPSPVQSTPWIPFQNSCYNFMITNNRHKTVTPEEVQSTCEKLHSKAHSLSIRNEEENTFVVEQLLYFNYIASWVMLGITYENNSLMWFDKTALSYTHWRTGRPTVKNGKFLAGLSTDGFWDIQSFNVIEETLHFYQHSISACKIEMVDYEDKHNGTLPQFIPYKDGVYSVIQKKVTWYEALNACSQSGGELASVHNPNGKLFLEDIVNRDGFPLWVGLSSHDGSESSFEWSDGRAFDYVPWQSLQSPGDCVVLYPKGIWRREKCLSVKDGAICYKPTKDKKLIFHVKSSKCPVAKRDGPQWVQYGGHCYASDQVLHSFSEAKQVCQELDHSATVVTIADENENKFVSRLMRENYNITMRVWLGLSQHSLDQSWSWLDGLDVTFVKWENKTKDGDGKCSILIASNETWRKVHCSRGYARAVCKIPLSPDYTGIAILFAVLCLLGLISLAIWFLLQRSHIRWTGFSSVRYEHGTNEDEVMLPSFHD
Experimental: The minimized aptamer, min.2 (FIG. 3a), was chemically synthesized bearing a 3′ inverted dT for added serum stability and a 5′ thiol to facilitate subsequent chemical conjugations. When labeled with Alexa Fluor 488, this chemically synthesized aptamer performed as well as constructs produced by transcription (data not shown). Direct labeling of min.2 also allowed us to measure the apparent dissociation constant of this aptamer for cell-surface mDEC205 on A20 cells (23±6 nM; FIG. 3b). The specificity of Clone 1 and high affinity of its minimized form, min.2, constitute a promising basis for using this aptamer for targeted antigen delivery.
mDEC205 Cell Surface Binding Assay: A20.Kb cells or A20.Kb.mDEC205 cells which are engineered to express higher amounts of mDEC205 were washed with RPMI, resuspended at 1×10⁵ cells in 100 μL RPMI supplemented with 1 mg/mL ssDNA, and stored on ice while Alexa Fluor 488-conjugated min.2 and Alexa Fluor 488-conjugated cntrl.36 were prepared as described previously. After addition of refolded RNA to cells, the RNA-cell mixture was incubated for 15 minutes at 37° C., washed with and resuspended in flow cytometry buffer, and analyzed by flow cytometry. […]

Sequence of mouse DEC205 (mouse) (Q60767 28-1723): as the sequence (Q60767 28-1723, one chain of several) above

Molecule | OT-I cell proliferation (CFSE dilution) after two days with antigen-treated CD11c+ splenocytes (mouse DEC205 (mouse)) | Kd [1]
NLDC145:OVA, recombinant fusion of OVA and anti-mDEC205 antibody clone NLDC145 | > 80% | –
B1 | – | 23 nM
